{
  "source": "patent US20110135636A1",
  "about": "(SYMPHOGEN A S, published 2011)",
  "key": {"[1]": {"molecular_target": "T1, recombinant human EGFR extracellular domain with 6xHis (human, UniProt P00533 25-645)", "T1 construct": "In-house produced; also called 6xHis EGFR ECD; soluble human EGFR ECD; not shown: 6xHis tag", "experiment": "SPR competition, competitor 1449", "method": "(§1) SPR analysis was performed on a Biacore 3000 machine containing four flow cells. A CM5 Biacore chip was conjugated with 10,000 Resonance units (Ru) polyclonal anti-His antibody to flow cells 1-4 according to the manufacturer's instructions. […] Immediately after antigen injection the maximal binding of the Anti-EGFR mAb without competition was established in each flow cell during a reference run. Briefly 5 μl antibody at a concentration of 40 μg/ml was injected over all flow cells with captured EGFR followed by stripping of the antibody/antigen complex with a low pH acid wash (10 sec. contact time with 10 mM Glycine-HCl, pH2). After the determination of Anti-EGFR antibody maximal binding to each flow cell, a competition run was performed during the same Biacore cycle. Flow cells were first saturated with EGFR ECD antigen followed by injection of different reference antibodies or Anti-EGFR antibodies into separate flow cells using the same antigen saturating conditions as outlined above. This step was immediately followed by a second injection of Anti-EGFR antibody over the flow cell saturated with EGFR antigen and competition antibody to minimize the dissociation of either antigen or blocking antibody. Then the antibody/antigen complexes were stripped off with a low pH acid wash (10 sec. contact time with 10 mM Glycine-HCl, pH 2) and the whole cycle beginning with the reference run was repeated with a new Anti-EGFR antibody. The degree of inhibition of tested Anti-EGFR antibodies were determined by comparing the Ru max value of the individual Anti-EGFR antibody before and after competition by introduction of report points recorded two seconds before and after injection of each sample."}, "[2]": {"molecular_target": "T1, recombinant human EGFR extracellular …", "experiment": "SPR competition, competitor Ab-11", "method": "as §1"}, "[3]": {"molecular_target": "T1, recombinant human EGFR extracellular …", "experiment": "SPR competition, competitor Erbitux", "method": "as §1"}, "[4]": {"molecular_target": "T1, recombinant human EGFR extracellular …", "experiment": "SPR competition, competitor Ab-1", "method": "as §1"}, "[5]": {"molecular_target": "T1, recombinant human EGFR extracellular …", "experiment": "SPR competition, competitor 1042", "method": "as §1"}, "[6]": {"molecular_target": "T1, recombinant human EGFR extracellular …", "experiment": "SPR competition, competitor 992 corr", "method": "as §1"}, "[7]": {"molecular_target": "T2, wild type full length EGFR purified from A431 cells (human, UniProt P00533 25-1210)", "T2 construct": "mature; Bought; coated on ELISA wells; also called full length EGFR receptor antigen; Sigma E3641", "experiment": "competition ELISA, competitor Ab-3", "set-up": "concentration or dose not given beside the values", "method": "(§2) The ELISA was adapted from the descriptions published in Ditzel et al, 1995, The Journal of Immunology, Vol 154, Issue 2 893-906.\n(§3) An epitope blocking ELISA was performed by diluting full length EGFR receptor antigen to 0.5 μg/ml in PBS; and coating 50 μl/ELISA well overnight at 4° C. […] Finally wells were washed four times with PBS-T and plates were developed by adding 50 μl/well TMB and read at 620 nm every 5-15-30 min. The degree of inhibition was calculated from the formula: % inhibition=(1−(OD competition/OD no competition (PBS)))×100."}, "[8]": {"molecular_target": "T2, wild type full length EGFR purified …", "experiment": "competition ELISA, competitor Ab-2", "set-up": "concentration or dose not given beside the values", "method": "as §2, §3"}, "[9]": {"molecular_target": "T2, wild type full length EGFR purified …", "experiment": "competition ELISA, competitor Ab-5", "set-up": "concentration or dose not given beside the values", "method": "as §2, §3"}, "[10]": {"molecular_target": "T2, wild type full length EGFR purified …", "experiment": "competition ELISA, competitor Ab-1", "set-up": "concentration or dose not given beside the values", "method": "as §2, §3"}, "[11]": {"molecular_target": "T1, recombinant human EGFR extracellular …", "experiment": "SPR competition, competitor Erbitux", "method": "as §1", "remark": "listed apart in the source"}, "[12]": {"molecular_target": "T1, recombinant human EGFR extracellular …", "experiment": "SPR competition, competitor Ab-5", "method": "as §1"}, "[13]": {"molecular_target": "T2, wild type full length EGFR purified …", "experiment": "competition ELISA, competitor Ab-10", "set-up": "concentration or dose not given beside the values", "method": "as §2, §3"}, "[14]": {"molecular_target": "T3, Cynomolgus EGFR extracellular domain (Cynomolgus monkey (Macaca fascicularis), UniProt P55245 25-645 (rhesus entry))", "T3 construct": "Cloned without signal peptide; also called Cynomolgus rEGFR ECD; Cynomolgus EGFR ECD", "experiment": "ELISA on cynomolgus EGFR ECD (Example 10)", "method": "To verify that tested Anti-EGFR antibodies bound equally well to both Human and Cynomolgus EGFR ECD and accordingly warranting toxicology studies in Cynomolgus monkeys, serial four fold dilutions of antibodies beginning from 1 μg/ml were tested by ELISA for binding to recombinant Human and Cynomolgus EGFR ECD proteins. […] ELISA wells were coated with 50 μl/well of full length EGFR at a concentration of 1 μg/ml in PBS overnight at 4° C. The next morning wells were washed twice with PBS-T and blocked for one hour with 100 μl PBS-T-1% BSA at room temperature, followed by wash twice in PBS-T. Next 50 μl of serially diluted Anti-EGFR antibodies and control antibodies were added to wells and incubated for one hour at room temperature. After antibody incubation wells were washed five times with PBS-T, followed by incubation with 50 μl/well Streptavidin-HRP secondary reagent diluted 1:3000 in blocking buffer and incubation at room temperature for 30 min. Finally wells were washed five times with PBS-T and plates were developed by adding 50 μL/well TMB substrate and incubated at room temperature. After incubation the reaction was stopped by addition of 1 M H₂SO₄; 100 μl/well and plates were read at OD 450 nm."}, "[15]": {"molecular_target": "T1, recombinant human EGFR extracellular …", "experiment": "SPR competition, competitor Ab-3", "method": "as §1"}, "[16]": {"molecular_target": "T2, wild type full length EGFR purified …", "experiment": "competition ELISA, competitor Ab-11", "set-up": "concentration or dose not given beside the values", "method": "as §2, §3"}, "[17]": {"molecular_target": "T1, recombinant human EGFR extracellular …", "experiment": "SPR competition, competitor Vectibix", "method": "as §1"}, "[18]": {"molecular_target": "T2, wild type full length EGFR purified …", "experiment": "competition ELISA, competitor ICR10", "set-up": "concentration or dose not given beside the values", "method": "as §2, §3"}, "[19]": {"molecular_target": "T1, recombinant human EGFR extracellular …", "experiment": "SPR competition, competitor Ab-10", "method": "as §1"}, "[20]": {"molecular_target": "T1, recombinant human EGFR extracellular …", "experiment": "SPR competition, competitor ICR10", "method": "as §1"}, "[21]": {"molecular_target": "T1, recombinant human EGFR extracellular …", "experiment": "SPR competition, competitor Vectibix", "method": "as §1", "remark": "listed apart in the source"}},
  "data": [
    {"binder": "antibody 1042 (antibody, human IgG1, kappa, V domains shown, Chimeric IgG1 kappa; RA- left out of the VH entry) VH: QVQLQQPGAELVKPGASVKLSCKASGYTFTSHWMHWVQQRPGQGLEWIGEIHPSNGRTNYNEKFKNKATLTVDKSPSTAYMQLSSLTSEDSAVYYCARYYGYDDAMDYWGQGTSVTVSS VL: DIVMTQAAFSNPVTLGTSASISCRSSKSLLHSNGITYLYWYLQKPGQSPQLLIYQMSNLASGVPDRFSSSGSRTDFTLRISRVEAEDVGVYYCAQNLELPYTFGGGTKLEIKR", "values": [
      {"measurement": "% inhibition", "setting": "[1]", "value": 93, "unit": "%"},
      {"measurement": "% inhibition", "setting": "[2]", "value": -8, "unit": "%"},
      {"measurement": "% inhibition", "setting": "[3]", "value": 107, "unit": "%"},
      {"measurement": "% inhibition", "setting": "[4]", "value": 14, "unit": "%"},
      {"measurement": "% inhibition", "setting": "[5]", "value": 83, "unit": "%"},
      {"measurement": "% inhibition", "setting": "[6]", "value": 25, "unit": "%"},
      {"measurement": "% inhibition", "setting": "[7]", "value": -29, "unit": "%"},
      {"measurement": "% inhibition", "setting": "[8]", "value": 81, "unit": "%"},
      {"measurement": "% inhibition", "setting": "[9]", "value": -7, "unit": "%"},
      {"measurement": "% inhibition", "setting": "[10]", "value": 24, "unit": "%"},
      {"measurement": "% inhibition", "setting": "[11]", "value": 107, "unit": "%"},
      {"measurement": "% inhibition", "setting": "[12]", "value": 10, "unit": "%"},
      {"measurement": "% inhibition", "setting": "[13]", "value": 15, "unit": "%"},
      {"measurement": "binding result", "setting": "[14]", "value": "binds"},
      {"measurement": "% inhibition", "setting": "[15]", "value": 0, "unit": "%"},
      {"measurement": "% inhibition", "setting": "[16]", "value": 7, "unit": "%"},
      {"measurement": "% inhibition", "setting": "[17]", "value": 103, "unit": "%"},
      {"measurement": "% inhibition", "setting": "[18]", "value": -7, "unit": "%"},
      {"measurement": "% inhibition", "setting": "[19]", "value": -4, "unit": "%"},
      {"measurement": "% inhibition", "setting": "[20]", "value": -6, "unit": "%"},
      {"measurement": "% inhibition", "setting": "[21]", "value": 110, "unit": "%"}
    ]},
    {"binder": "antibody 1277 (antibody, human IgG1, kappa, V domains shown, Chimeric IgG1 kappa; also called clone 1277) VH: EVQLVESGGGLVKPGESLKLSCAASGFAFSYSDMSWVRQTPEKRLEWVAYMSSAGDVTFYSDTVKGRFTISRDNAKNTLYLQVSSLKSEDTAIYYCVRHRDVAMDYWGQGTSVTVSS VL: DVVMTQTPLSLPVSLGDQASISCRSSQSLVHSNGNTYLHWYLQKPGQSPKLLIYKVSNRFSGVPDRFSGSGSGTDFTLKISRVEAEDLGVYFCSQSTHVPTFGGGTKLEIKR", "values": [
      {"measurement": "binding result", "setting": "[14]", "value": "binds"}
    ]}
  ]
}
